# Key:
# [1] = target: IgG in human serum pool from 100 individuals
# [2] = target: anti-drug antibodies (ADA) in human serum
Protein,"enzyme concentration at which intact IgG started to be digested, serum pool with 0.1 mg/ml pCART243 (SDS-PAGE) [1]",enzyme concentration at which scIgG are further digested into F(ab')2 and Fc fragments in serum pool (SDS-PAGE) [1],enzyme concentration for cleavage from IgG to scIgG in serum pool (SDS-PAGE) [1],restoration of pCART239 IgG cleavage activity in serum by 0.1 mg/ml inactive decoy (SDS-PAGE) [2]
"pCART239, a variant IdeZ polypeptide of the invention (protein) MDDYQRNATEAYAKEVPHQITSVWTKGVTPPEQFTQGEDVIHAPYLAHQGWYDITKAFNGKDDLLCGAATAGNMLHWWFDQNKTEIEAYLSKHPEKQKIIFRNQELFDLKAAIDTKDSQTNSQLFNYFRDKAFPNLSARQLGVMPDLVLDMFINGYYLNVFKTQSTDVNRPYQDKDKRGGIFDAVFTRGNQTTLLTARHDLKNKGLNDISTIIKQELTEGRALALSHTYANVSISHVINLWGADFNAEGNLEAIYVTDSDANASIGMKKYFVGINAHGHVAISAKKIEGENIGAQVLGLFTLSSGKDIWQKLSGGGHHHHHH",Intact IgG started to be digested already at 0.03 µg/ml,approximately 1.9 µg/ml of enzyme,approximately 0.9 µg/ml of enzyme,
"pCART243, an inactive variant IdeZ polypeptide (protein) MDDYQRNATEAYAKEVPHQITSVWTKGVTPPEQFTQGEDVIHAPYLAHQGWYDITKAFNGKDDLLGGAATAGNMLHWWFDQNKTEIEAYLSKHPEKQKIIFRNQELFDLKAAIDTKDSQTNSQLFNYFRDKAFPNLSARQLGVMPDLVLDMFINGYYLNVFKTQSTDVNRPYQDKDKRGGIFDAVFTRGNQTTLLTARHDLKNKGLNDISTIIKQELTEGRALALSHTYANVSISHVINLWGADFNAEGNLEAIYVTDSDANASIGMKKYFVGINAHGHVAISAKKIEGENIGAQVLGLFTLSSGKDIWQKLSGGGHHHHHH",,,,should bind the inactivating ADA to the extent that the activity of pCART239 in serum is restored. This was shown to be the case
